Assay results: the supplement of paper PMC10567573

B1: KLHL14 (parent)
chain: NETGYLSSVECYNLETNEWRYVSS

Variants of: B1
Test: protein stability index of a GFP-peptide fusion (GPS, HEK-293T) (PSI 1-6); higher = more stable
Conditions: c terminus: a fixed tail appended
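Note: lentivirally expressed fusions sorted by FACS into six bins by GFP to DsRed ratio, PSI derived from sequencing read proportions per bin multiplied by bin number.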

Protein stability index: each site, then its substitutions
S8: E 4.43, P 4.21, H 2.17, L 2.77, T 3.27, Y 1.67, R 2.35, N 4.16, Q 3.29, K 2.85, I 2.29, G 3.76, C 2.55, F 2.1, V 2.77, D 4.02, M 2.73, A 3.34
L6: S 3.63, I 3.24, A 3.63, E 4.29, Q 3.69, W 4.46, V 3.39, R 3.82, H 4.23, Y 2.86, F 2.87, G 3.62, D 3.78, N 3.08, K 3.89, P 4.19, C 3.21, T 3.97, M 3.45
E2: Y 1.88
N17: A 2.92, E 4.2, W 2.25, P 3.42, M 3.19, I 2.31, Q 4.06, F 2.9, H 3.31, T 3.01, K 3.72, C 2.84, V 3.06, L 3.66, S 4.14, G 3.67, R 3.01, D 4.02, Y 2.64
T3: E 3.53, S 3.4, K 2.67, F 2.45, I 3.4, N 3.78, M 2.78, P 3.85, G 3.01, D 4.12, L 3.08, A 3.3, R 2.96, Y 3.21, H 3.12, Q 3.4, C 2.8, V 2.92, W 2.53
E18: D 3.72, Q 2.93, F 3.41, N 3.49, V 2.62, H 2.94, Y 2.57, I 2.68, W 2.15, M 2.92, P 2.58, S 2.9, A 2.83, G 2.36, C 2.55, L 3.02, K 3.48, T 3.22, R 3.68
E15: I 1.84, P 2.54, C 2.34, R 2.39, A 1.94, L 2.61, D 3.41, Y 2.15, K 3.66, H 2.42, T 2.02, N 3.03, F 1.8, M 2.63, Q 2.58, G 3.18, W 2.13, S 2.08, V 2.25
Y5: F 3.71, L 3.46, R 3.2, P 4, E 4.24, D 4.57, W 2.52, Q 4.24, N 4.2, M 3.64, V 3.8, C 3.9, T 4.72, S 4.16, G 4.01, H 4.18, K 3.41, A 4.24, I 4
Y12: C 3.36, G 3.76, W 3.1, P 4.05, D 4.55, I 2.95, H 3.81, L 3.67, K 3.97, R 3.72, M 3.5, F 3.69, N 3.78, S 4, T 3.89, V 4.09, A 3.94, E 4.24, Q 3.84
G4: C 1.98, S 3.22, M 2.77, W 1.68, E 3.56, T 2.8, I 2.34, H 3.17, V 2.58, K 3.56, D 4, A 3.75, R 2.64, P 3.92, Y 2.46
